Ends that are not written are not given here. * marks the point of attachment. Biotin = O=C1N[C@H]2[C@H](CS[C@H]2CCCCC(=O)*)N1
Molecular target: eukaryotic elongation factor 2 (eEF2) (rat, UniProt P05197 2-858)
Assay: pull-down from rat brain homogenate with streptavidin agarose, Western blot

B1: peptide 1 (Ac-RRQRYTPFPLGFE-Lys(Biotin)-NH2-OH), peptide derived from the G-H loop of ephrinA4 (peptide)
peptide: Ac-RRQRYTPFPLGFEK(Biotin)
modifications: not fully specified; printed as Ac-RRQRYTPFPLGFE-Lys(Biotin)-NH2-OH
notes: also called pep-ephrinA4; ephrinA4 peptide
  binding result: no binding (tested: 20 micrograms)
